These results are taken from patent publication US20230167182A1 (BIOSION, published 2023).

Assay [1] concerns the target T1, macaca IL6R-his protein (macaca mulatta).
T1 chain: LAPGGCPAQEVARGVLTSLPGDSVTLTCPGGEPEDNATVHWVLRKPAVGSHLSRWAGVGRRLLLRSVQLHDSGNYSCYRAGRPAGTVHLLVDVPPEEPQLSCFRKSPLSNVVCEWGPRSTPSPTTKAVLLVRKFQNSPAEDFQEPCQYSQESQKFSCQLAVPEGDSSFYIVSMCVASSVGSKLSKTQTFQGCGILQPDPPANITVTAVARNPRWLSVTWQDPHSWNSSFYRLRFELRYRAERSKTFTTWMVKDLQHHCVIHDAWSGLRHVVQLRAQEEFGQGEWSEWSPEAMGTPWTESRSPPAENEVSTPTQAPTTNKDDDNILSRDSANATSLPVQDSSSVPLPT
Briefly: indirect ELISA on plate-coated macaca IL6R-his.

In assay [2] the target is T2, human IL6R-Fc protein (human, biotin-labeled in the ELISAs (sites not given)).
T2 construct: In house made; also called biotin-labeled human IL6R-Fc protein
Briefly: benchmark blocking ELISA: antibody pre-incubated with biotin-labeled human IL6R-Fc, added to plate-coated Tocilizumab (competitor: Tocilizumab). How it is done:
(§1) ELISA plates were washed once with wash buffer (PBS+0.05% v/v Tween-20, PBST) and then blocked with 200 μl/well blocking buffer (5% w/v non-fatty milk in PBST) overnight at 4° C.
(§2) The next day, the anti-IL6R antibodies of the disclosure or controls were diluted with biotin labeled human IL6R-Fc protein (SEQ ID NO: 43, 13.6 ng/ml in 2.5% w/v non-fatty milk in PBST), starting at 100 nM with a 5-fold serial dilution, and incubated at room temperature for 40 minutes. […] After incubation at 37° C. for 40 minutes, plates were washed 4 times using wash buffer. Then streptavidin conjugated HRP was added, and the plates were incubated for 40 minutes at 37° C. The plates were finally washed using wash buffer, and added with TMB. The reaction was stopped using 1M […], and the absorbance was read on a microplate reader using dual wavelength mode with 450 nm for TMB and 630 nm as the reference wavelength. The OD (450-630) values were plotted against antibody concentration. Data was analyzed using Graphpad Prism software and IC₅₀ values were reported.
Background: An ELISA detects its analyte on a solid surface through an enzyme-linked reagent.
Target sequence in this assay (chain, as listed by the source limits assumed): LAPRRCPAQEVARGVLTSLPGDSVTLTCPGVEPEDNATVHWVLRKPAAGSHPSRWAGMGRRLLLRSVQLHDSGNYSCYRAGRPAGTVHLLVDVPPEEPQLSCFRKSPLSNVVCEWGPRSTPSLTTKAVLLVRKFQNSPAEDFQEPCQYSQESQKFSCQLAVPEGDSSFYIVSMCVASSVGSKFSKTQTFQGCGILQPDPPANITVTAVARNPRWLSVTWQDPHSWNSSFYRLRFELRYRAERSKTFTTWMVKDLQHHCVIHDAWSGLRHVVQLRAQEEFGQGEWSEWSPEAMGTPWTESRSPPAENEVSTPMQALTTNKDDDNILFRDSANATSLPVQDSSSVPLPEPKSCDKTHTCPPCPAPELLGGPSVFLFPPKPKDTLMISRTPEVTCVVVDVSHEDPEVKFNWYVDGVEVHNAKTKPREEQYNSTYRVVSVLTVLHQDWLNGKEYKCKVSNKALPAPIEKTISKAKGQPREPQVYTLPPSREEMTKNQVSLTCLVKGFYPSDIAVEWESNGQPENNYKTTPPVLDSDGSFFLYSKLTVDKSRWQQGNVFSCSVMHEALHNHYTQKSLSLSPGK

The target in assay [3] is T2, human IL6R-Fc protein. Briefly: ligand blocking ELISA: antibody pre-incubated with biotin-labeled human IL6R-Fc, added to plate-coated human IL6 (blocked ligand: human IL6). Here is the method:
(§3) The next day, anti-IL6R antibodies or controls were diluted with biotin labeled human IL6R-Fc protein (prepared in house, SEQ ID NO: 43, 39.5 ng/ml in 2.5% w/v non-fatty milk in PBST), starting at 100 nM with a 4-fold serial dilution, and incubated at room temperature for 40 minutes. […] Plates were washed for 4 times using wash buffer, and added and incubated with 100 μl/well of streptavidin conjugated HRP (1:10000 dilution in PBST buffer, Jackson ImmunoResearch Laboratories, Inc., Cat #016-030-084) for 40 minutes at 37° C. Plates were washed again using wash buffer. Finally, TMB was added and the reaction was stopped using 1M H₂SO₄. The absorbance was read on a microplate reader using dual wavelength mode with 450 nm for TMB and 630 nm as the reference wavelength, and then the OD (450-630) values were plotted against antibody concentration. Data was analyzed using Graphpad Prism software and IC₅₀ values were reported.

Assay [4] concerns the target T2, human IL6R-Fc protein. Described as above. The source holds these as a separate data set.
In assay [5] the target is T1, macaca IL6R-his protein. Description: indirect ELISA on plate-coated macaca IL6R-his. How it is done: The anti-IL6R antibodies were tested for their cross-reaction with macaca IL6R. Briefly, 96-well micro plates were coated with 2 μg/ml macaca IL6R-his protein (in house made, amino acid sequence set forth in SEQ ID NO:45) in carbonate/bicarbonate buffer (pH 9.6), 100 μl/well, for 2 hours at 37° C. ELISA plates were washed once with wash buffer (PBS+0.05% v/v Tween-20, PBST) and then blocked with 200 μl/well blocking buffer (5% w/v non-fatty milk in PBST) for 2 hours at 37° C. Plates were washed 4 times and incubated with 100 μl/well serially diluted anti-IL6R antibodies of the disclosure or controls, starting at 66.67 nM with 5-fold serial dilution in PBST with 2.5% w/v non-fat milk, and incubated at 37° C. for 40 minutes. ELISA plates were washed 4 times again and incubated with 100 μl/well Peroxidase AffiniPure Goat Anti-Mouse IgG, Fcγ Fragment Specific (1:5000 dilution in PBST buffer, Jackson ImmunoResearch Laboratories, Inc., Cat #115-035-071) for 40 minutes at 37° C. After the final wash, plates were incubated with 100 μl/well TMB (InnoReagents). The reaction was stopped 3-10 minutes later at room temperature with 50 μl/well 1M H₂SO₄, and the absorbance of each well was read on a microplate reader using dual wavelength mode with 450 nm for TMB and 630 nm as the reference wavelength. Then the OD (450-630) values were plotted against antibody concentration. Data was analyzed using Graphpad Prism software and EC₅₀ values were reported.

The target of assay [6] is T2, human IL6R-Fc protein. Briefly: ligand blocking ELISA: antibody pre-incubated with biotin-labeled human IL6R-Fc, added to plate-coated human IL6 (blocked ligand: human IL6). Here is the method:
as §3
The source holds these as a separate data set.

Assay [7] deals with T2, human IL6R-Fc protein. Briefly: benchmark blocking ELISA: antibody pre-incubated with biotin-labeled human IL6R-Fc, added to plate-coated Tocilizumab (competitor: Tocilizumab). Here is the method:
as §1, §2
Target sequence in this assay (chain, as listed by the source limits assumed): as above
This is another data set of the same source.

Like-named read-outs stand apart in the source and are kept apart here.

B1: humanized antibody hu1H7-V5 (antibody, human IgG1, kappa, V domains shown)
VH: QVQLVQSGAEVKKPGASVKVSCKASGYTFTNYWMHWVRQAPGQGLEWIGEINPTNGRTNYNENFKSRVTLTVDTSTSTVYMELSSLRSEDTAVYYCARLNTHYVFDSWGQGTLVTVSS
VL: EIVLTQSPGTLSLSPGERATLSCSVSSSISSNYLHWYQQKPGLSPRLLISRTSTLASGIPARFSGSGSGTEYTLTISRMQSEDFAVYYCQQGSGIPFTFGQGTKLEIKR
notes: Human IgG1 / kappa
On to B1, for which the response with macaca IL6R-his protein [1] was half-maximal at 0.242 nM (EC50). The IC50 with human IL6R-Fc protein [2] was found to be 0.364 nM.

B2: Chimeric 1H7 (antibody, human IgG1, kappa, V domains shown)
VH: QVQLQQPGTELVKPGASVKLSCKASGYTFTNYWMHWVKQRPGQGLDWIGEINPTNGRTNYNENFKSKATLTVDKSSSTAYMQLSSLTSEDSAVYYCARLNTHYVFDSWGQGTTLTLSS
VL: EIVLTQSPTTLAASPGEKITFTCSVSSSISSNYLHWYQQKPGFSPKLLISRTSTLASGVPARFSGSGSGTSYSLTIGTMEAEDVATYYCQQGSGIPFTFGSGTKLELKR
notes: Mouse variable regions on human IgG1 / human kappa constant regions; also called chimeric antibody 1H7
For the molecule B2, the midpoint of the response with macaca IL6R-his protein [1], the EC50, lay at 0.227 nM. The IC50 with human IL6R-Fc protein [2] turned out to be 0.203 nM.

B3: mouse anti-IL6R monoclonal antibody 1H9 (antibody, V domains shown)
VH: QVQLQQPGAELVKPGASVKLSCKASGYTFTSYWMHWVKLRPGQGLEWIGEINPTNGRTNYYEKFKNRATLTADKSSSTAYMQLSSLTFEDSAVYFCAKFHYSRWYFDVWGTGTTVTVSS
VL: DIVMTQSQKFMSTSVGDRVSITCKASQNVGTAVVWYQQKPGQSPKLLINPASNRYTGVPDRFTGSGSGTDFTLTISNMQSEDLADYFCQQYSSYPLTFGAGTKLELK
notes: Mouse hybridoma mAb
Turning to B3, the results for the IC50 with human IL6R-Fc protein [3] and with human IL6R-Fc protein [4] were 1.05 nM and 0.274 nM, respectively.

B4: Tocilizumab (antibody, human IgG1, kappa, V domains shown)
VH: QVQLQESGPGLVRPSQTLSLTCTVSGYSITSDHAWSWVRQPPGRGLEWIGYISYSGITTYNPSLKSRVTMLRDTSKNQFSLRLSSVTAADTAVYYCARSLARTTAMDYWGQGSLVTVSS
VL: DIQMTQSPSSLSASVGDRVTITCRASQDISSYLNWYQQKPGKAPKLLIYYTSRLHSGVPSRFSGSGSGTDFTFTISSLQPEDIATYYCQQGNTLPYTFGQGTKVEIKR
notes: In house made; also called benchmark; Actemra
For the molecule B4, the results for the EC50 in the assay with macaca IL6R-his protein [5] and in the assay with macaca IL6R-his protein [1] were 0.0571 nM and 0.201 nM, respectively. Further, the half-inhibitory concentration (IC50) with human IL6R-Fc protein [6] turned out to be 2.51 nM; with human IL6R-Fc protein [3], 2.54 nM; with human IL6R-Fc protein [4], 0.616 nM; in the assay with human IL6R-Fc protein [7] it was 1.41 nM; with human IL6R-Fc protein [2], 0.862 nM.

B5: mouse anti-IL6R monoclonal antibody 1F7 (antibody, V domains shown)
VH: QVQLQQPGAELVKPGASVKLSCKASDYTFTSYWMHWVKQRPGQGLEWIGEINPSNGRTNYNEKFKNKATLTVDKSSSTAYVQLYSLTSEDSAVYYCARLSIHYVFDYWGQGTTLTVSS
VL: ELVLTQSPTTMAASPGEKITFTCSASSSISSNYLHWYQQKPGFSPKLLISGTSNLASGVPPRFSGSGSGTSYSLTIVTMEAEDVATYYCQQGSGIPFTFGSGTKLEIK
notes: Mouse hybridoma mAb
The molecule B5 registered an EC50 with macaca IL6R-his protein [5] of 0.14 nM.

B6: mouse anti-IL6R monoclonal antibody 1H7 (antibody, V domains shown)
VH: QVQLQQPGTELVKPGASVKLSCKASGYTFTNYWMHWVKQRPGQGLDWIGEINPTNGRTNYNENFKSKATLTVDKSSSTAYMQLSSLTSEDSAVYYCARLNTHYVFDSWGQGTTLTLSS
VL: EIVLTQSPTTLAASPGEKITFTCSVSSSISSNYLHWYQQKPGFSPKLLISRTSTLASGVPARFSGSGSGTSYSLTIGTMEAEDVATYYCQQGSGIPFTFGSGTKLELK
notes: Mouse hybridoma mAb
Regarding B6, the EC50 with macaca IL6R-his protein [5] is 0.213 nM; with macaca IL6R-his protein [1], 0.147 nM. In addition, the IC50 with human IL6R-Fc protein [3] was 0.601 nM; with human IL6R-Fc protein [2], 0.237 nM.

B7: mouse anti-IL6R monoclonal antibody 3C2 (antibody, V domains shown)
VH: QVQLQQPGTELVKPGASVKLSCKASGYTFTTYWIHWVKQRPGQGLEWIGEINPSNGRTNYNEHFKSKATLTVDKSSSTASMQLSSLTSADSAVYYCARLNTHYVFDSWGQGTTLTVSS
VL: EIVLTQSPTTMAASPGEKITITCSASSSISSNYLHWYQQKPGFSPKLLIYRTSNLASGVPTHFSGSGSGTSYSLTIGTMEAEDVATYYCQQGSGIPFTFGSGTKLEIK
notes: Mouse hybridoma mAb
On to B7, for which it took 0.296 nM to reach a half-maximal effect with macaca IL6R-his protein [5] (EC50). In the assay with human IL6R-Fc protein [6], this molecule yielded an IC50 of 0.704 nM.

B8: mouse anti-IL6R monoclonal antibody 1A3 (antibody, V domains shown)
VH: QVQLQQPGAELVKPGASVKLSCKASGYTFTSYWMHWVKQRPAQGLEWIGEINPSNGRTNFNEKFKTKATLTVDKSSNTAYMQLSSLTSEDSAVYSCLRLNTHYVFDYWGQGTTLTVSS
VL: EIVLTQSPTTMAASPGEKITITCSASSSISSNYLHWYQQKPGFSPKLLISRTSNLASGVPTRFSGSGSGTSYSLTIGTMEAGDVATYYCQQGSGIPFTFGSGTKLEIK
notes: Mouse hybridoma mAb purified on Protein A
Molecule B8 came in with an IC50 with human IL6R-Fc protein [7] of 0.166 nM.

B9: mouse anti-IL6R monoclonal antibody 1G1 (antibody, V domains shown)
VH: QVQLQQPGAELVKPGASVKLSCKASGYTFTSYWMHWVKVRPGQGLEWIGEINPTNGRTNYNEDFKSKATLTVESSSSTAYMQFSSLTSEDSAVYYCARLNTHYVFDYWGQGTTLTVSS
VL: EIVLTQSPTILAASPGEKITFTCSVSSSISSNYLHWYQQKPGFSPKLLIYRTSNLASGVPARFSGSGSGTSYSLTIGTMEAEDVATYYCQQGSGIPFTFGSGTKLEIK
notes: Mouse hybridoma mAb
In turn, B9 had a half-inhibitory concentration (IC50) in the assay with human IL6R-Fc protein [6] of approximately 1.44 nM.

B10: mouse anti-IL6R monoclonal antibody 1B5 (antibody, V domains shown)
VH: QVQLQQPGAELVKPGASVKLSCKASGYTFTSYWMHWVKQRPGQGLEWIGEINPSNGRTNYNENFKSKATLTVDKSSSTAYMQLSSLTSEDSAVYYCARLNTHYVFDYWGQGTTLTVSS
VL: EIVLTQSPTILAASPGEKITFTCSVSSSISSNYLHWYQQKPGFSPKLLIYRTSNLASGVPARFSGSGSGTSYSLTIGTMEAEDVATYYCQQGSGIPFTFGSGTKLEIK
notes: Mouse hybridoma mAb
As to B10, the concentration giving a half-maximal response (EC50) with macaca IL6R-his protein [5] was found to be 0.205 nM. In the assay with human IL6R-Fc protein [7], this molecule showed an IC50 of 0.162 nM.

As a reminder, the EC50 is the concentration at which the effect is half-maximal. Low values mean a more potent agent, high ones a less potent agent. In general, IC50 refers to the concentration that inhibits the measured activity by half. A higher IC50 goes with weaker potency in that assay.
